From paper PMC8995355 (Molecular cell, 2022)
Each block holds one molecule with its values, some of them ahead of it. Square brackets hold non-standard residues; d marks the D form. Ends that are not written are not given here. pS = N[C@@H](COP(=O)(O)O)C(=O)O

Key:
RIF1 = RIF1 (UniProt Q5UIP0); experiment: biotin-peptide streptavidin pull-down, RIF1 blot
[1] = biological target: Cy5-53BP1(166-182) pS176/pS178; pS176/pS178 (S) (human) (UniProt Q12888); experiment: fluorescence polarisation
[2] = biological target: T1, RIF1(1-980), recombinant N-terminal fragment with the HEAT repeat-rich NTD (human, UniProt Q5UIP0 1-980); experiment: fluorescence polarisation
T1 sequence (looked up): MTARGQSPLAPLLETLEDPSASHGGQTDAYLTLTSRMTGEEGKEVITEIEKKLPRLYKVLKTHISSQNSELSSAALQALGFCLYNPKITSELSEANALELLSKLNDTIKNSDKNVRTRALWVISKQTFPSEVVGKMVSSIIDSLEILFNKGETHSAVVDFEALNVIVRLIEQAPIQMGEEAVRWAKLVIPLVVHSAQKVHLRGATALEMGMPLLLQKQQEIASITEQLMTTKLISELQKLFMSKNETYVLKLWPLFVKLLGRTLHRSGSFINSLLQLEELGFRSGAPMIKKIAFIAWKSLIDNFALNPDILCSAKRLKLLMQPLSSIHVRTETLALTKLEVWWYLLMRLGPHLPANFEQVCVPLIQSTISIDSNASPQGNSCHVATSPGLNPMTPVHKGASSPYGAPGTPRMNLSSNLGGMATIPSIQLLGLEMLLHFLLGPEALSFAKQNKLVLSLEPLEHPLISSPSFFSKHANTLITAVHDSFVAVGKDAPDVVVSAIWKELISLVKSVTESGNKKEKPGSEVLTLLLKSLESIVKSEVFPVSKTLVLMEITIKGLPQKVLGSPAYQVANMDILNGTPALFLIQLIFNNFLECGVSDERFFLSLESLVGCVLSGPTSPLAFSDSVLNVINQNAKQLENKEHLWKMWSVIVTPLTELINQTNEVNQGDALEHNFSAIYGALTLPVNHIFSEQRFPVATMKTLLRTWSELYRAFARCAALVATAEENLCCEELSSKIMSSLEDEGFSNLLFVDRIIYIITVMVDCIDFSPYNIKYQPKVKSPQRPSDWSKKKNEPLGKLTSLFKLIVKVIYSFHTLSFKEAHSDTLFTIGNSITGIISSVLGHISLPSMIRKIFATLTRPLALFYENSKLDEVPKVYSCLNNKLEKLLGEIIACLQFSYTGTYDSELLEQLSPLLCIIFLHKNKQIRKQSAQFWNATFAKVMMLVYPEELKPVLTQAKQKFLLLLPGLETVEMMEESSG

binding against the reference (RIF1; reference: unphosphorylated peptide (T696/S698), sites T696,S698): stronger
Molecule: 53BP1 686-702 (from UniProt Q12888) pT696/pS698 peptide

binding result [2]: binds
Molecule: Cy5-SQLGFGVLAL[pS]Q[pS]QDVE (peptide, UniProt Q12888 166-182, looked up) [Cy5-53BP1(166-182) pS176/pS178 E174A; pS176/pS178 (S) E174A]

Second part, the molecule before the results:

Molecule: 53BP1 511-527 (from UniProt Q12888) pS518/pS520 peptide
binding against the reference (RIF1; reference: unphosphorylated peptide (S518/S520), sites S518,S520): stronger

Molecule: RIF1(1-980), recombinant N-terminal fragment with the HEAT repeat-rich NTD (from UniProt Q5UIP0 1-980) (domain or fragment)
Kd [1]: 2000 nM

Molecule: Cy5-SQLGFGVLELEQ[pS]QDVE (peptide, UniProt Q12888 166-182, looked up) [Cy5-53BP1(166-182) S176E/pS178; S176E/pS178 (S)]
binding result [2]: binds
